From patent US7341836B2, “Modified cyclic nucleotide gated ion channels” (The Regents of the University of Colorado, priority 2001, dated 2008)
Entries after “also recorded” stand apart in the source; their conditions may differ.

T1: rat olfactory CNG channel α subunit (Rattus norvegicus, UniProt Q00195, C460W/E583M)
T1 construct: expressed in transfected cells; host or cells: HEK-293 (adenovirus infection)
T1 sequence (Q00195 1-664 C460W/E583M): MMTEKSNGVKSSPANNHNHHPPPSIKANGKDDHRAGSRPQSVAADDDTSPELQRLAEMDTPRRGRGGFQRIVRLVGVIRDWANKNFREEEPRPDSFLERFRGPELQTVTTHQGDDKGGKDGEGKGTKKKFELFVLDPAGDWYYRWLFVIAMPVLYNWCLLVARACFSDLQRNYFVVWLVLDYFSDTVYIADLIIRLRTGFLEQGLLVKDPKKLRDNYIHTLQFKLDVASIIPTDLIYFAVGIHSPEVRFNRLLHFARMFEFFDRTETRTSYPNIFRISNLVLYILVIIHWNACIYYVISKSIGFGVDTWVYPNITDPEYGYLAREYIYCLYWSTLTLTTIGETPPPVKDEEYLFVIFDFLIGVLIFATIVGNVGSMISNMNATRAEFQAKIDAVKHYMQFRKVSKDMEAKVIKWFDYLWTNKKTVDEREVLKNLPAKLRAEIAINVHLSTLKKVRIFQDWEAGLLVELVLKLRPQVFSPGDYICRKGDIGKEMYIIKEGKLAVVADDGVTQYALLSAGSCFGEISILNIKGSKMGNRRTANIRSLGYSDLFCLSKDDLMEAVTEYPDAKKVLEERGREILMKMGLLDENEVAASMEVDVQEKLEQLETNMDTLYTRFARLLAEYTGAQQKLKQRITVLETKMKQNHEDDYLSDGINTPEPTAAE


Columns and labels:
[1] = test system: rat olfactory CNG channel α subunit; assay: Excised inside-out patch recordings, cyclic nucleotide dose-response of CNG channel constructs; format: biochemical; details: for Imax^cGMP/Imax^cAMP: current at saturating cGMP divided by current at saturating cAMP
Protocol: (§1) As described in greater detail herein, the effects of modifications to CNG channels were assessed using the Hill equation, I/Imax=[cNMP]^N/([cNMP]^N+K1/2^N), where I/Imax is the fraction of maximal current, cNMP represents cyclic nucleotide, K1/2 is the concentration that gives half-maximal current, and N is the Hill coefficient, an index of cooperativity. I/Imax^cGMP/Imax^cAMP is the current induced by saturating cGMP divided by the current induced by saturating cAMP. Data (mean±standard deviation of three experiments) were obtained from excised membrane patches using standard patch clamp techniques.
(§2) To assess the cyclic nucleotide sensitivity of different CNG channel constructs, excised, inside-out patch recordings were made at room temperature (20-21° C.) using an Axopatch-200A patch clamp amplifier (Axon Instruments Inc.). Pipettes were pulled from borosilicate glass and heat polished. Pipettes were lowered onto the cells and gigaohm seals were formed. Patches were excised by shearing cells from the pipette with a jet of liquid. Ionic currents were elicited by 250 ms pulses to membrane potentials of +50 and −50 mV from a holding potential of 0 mV. Current records were sampled at five times the filter setting and stored on an IBM compatible computer. Records were corrected for errors due to series resistance (pipette resistance was 4.1 ±0.1 MΩ). Both the pipette and bath solutions contained (mM): 130 NaCl, 2 HEPES, 0.02 EDTA, and 1 EGTA, pH 7.6. Cyclic nucleotide-induced currents were obtained from the difference between currents in the presence and absence of cyclic nucleotides. Dose response curves for cAMP and cGMP were obtained at +50 and −50 mV in the same patch. The effects of the modifications were assessed using the Hill equation, I/Imax=[cNMP]^N/([cNMP]^N+K1/2^N), where I/Imax is the fraction of maximal current, cNMP represents cyclic nucleotide, K1/2 is the concentration that gives half-maximal current, and N is the Hill coefficient, an index of cooperativity. K1/2 and N for cAMP were 36±5 μM, 10±2 μM, 1.0±0.3 μM, and […] for WT, E583M, C460/E583M, and Δ61-90/C460W/E583M channels, respectively (See, Rich et al., J. Gen. Physiol. [2001], supra).
(§3) The cyclic nucleotide sensitivity of the C460W/E583M CNG channel was assessed in excised, inside-out patches as known in the art (See, Rich et al. [2001], supra). K1/2 and N were 1.1±0.3 μM and 2.1±0.4 at +50 mV; and 1.0±0.3 μM and 2.0 ±0.3 at −50 mV (n=11). With these values, the cAMP concentration could be calculated from currents measured in perforated patch experiments (Rich et al. Proc. Natl. Acad. Sci. [2001], supra).

[2] = test system: HEK-293 cells expressing C460W/E583M channels; assay: Single-cell local cAMP measurement, perforated patch or whole cell currents through C460W/E583M channels; format: cell-based, human; details: 1 μM PGE1
Protocol: Single-cell cAMP measurements were made using either the perforated patch or whole cell patch clamp technique (Rich et al. [2000], supra). In the perforated patch configuration, the pore forming antibiotic nystatin was added to the pipette solution to gain electrical access to the cell's interior while retaining divalent cations and larger molecules like cAMP in the cell. Recordings were made using an Axopatch-200A patch clamp amplifier (Axon Instruments). Pipette resistance was limited to 5 ΩM and averaged 3.4±0.5 ΩM (measurements provided herein are expressed as mean±standard deviation). In the perforated patch configuration, a steady access resistance was obtained 5-15 minutes following seal formation. […] These quantities were monitored throughout the experiments to ensure stable electrical access was maintained. […] The time to exchange the extracellular solution was measured by applying a 140 mM KCl solution to a depolarized cell (+50 mV), and monitoring changes in current through endogenous voltage-gated K^+ channels; for each experiment, it was less than 60 ms. […] In most of these experiments, the pipette solution also contained 1 mM cAMP; at the end of the experiment the maximal cAMP-induced current could be measured by rupturing the cell membrane at the tip of the pipette with suction, allowing saturating cAMP to diffuse to the channels (See, Rich et al. [2000], supra). […]

[3] = test system: HEK-293 cells expressing C460W/E583M channels; assay: PGE1-induced cAMP responses in cell populations (Ca2+ influx through C460W/E583M channels); format: cell-based, human; details: 100 nM PGE1
From the text: In this Example, experiments conducted to detect cAMP levels in cells are described. Changes in cyclic AMP concentrations in response to PGE1 stimulation were monitored in HEK-293 cells by measuring Ca^2+ influx through C460W/E583M CNG channels (See, Rich et al. [2001], supra). HEK-293 cells express a variety of extracellular receptors including prostanoid receptors (Thomas and Hoffman, Mol. Pharmacol., 49:907-914 [1996]), and the cAMP-specific PDE type IV (Rich et al. [2001], supra; and Hoffmann et al., EMBO J., 18:893-903 [1999]). Based on PCR analysis, these cells also appear to express AC types II, […], VI, and VII, (Hellevuo et al., Biochem. Biophys. Res. Commun., 192:311-318 [1993]). C460W/E583M channels were expressed heterologously using an adenovirus construct (See, Rich et al. [2001], supra). The Ca^2+ permeability of the channel was used to detect changes in local cAMP concentration; the fluorescent indicator fura-2 was used to monitor Ca^2+ entry. With this approach, incremental changes in cAMP concentration are readily detected as changes in relative Ca^2+ influx rates through C460W/E583M channels (See, Rich et al., [2001], supra).
Transient responses were observed over a large range of PGE1 concentrations, from 0.01 to 10 μM (FIG. 17, Panel A). […] The decline was unlikely to result primarily from a reduction in AC activity (e.g., receptor desensitization), because of the sustained accumulation of total cellular cAMP in the presence of IBMX (See, FIG. 16, Panel B). To verify this, 100 μM IBMX was added at various times after PGE1 application.
To test whether PGE1 did indeed increase the total PDE activity, 100 nM PGE1 were added at various times after the initial application of 100 nM PGE1 (a subsaturating concentration). There was a negligible response to the subsequent addition of PGE1, even after 50 min (FIG. 17, Panel D). Taken together, the results of the experiments shown in FIG. 17, Panels C and D argue that the cAMP transient is due to an initial increase in AC activity, followed by a more profound increase in PDE activity. […] As indicated herein, these processes are crucial for the generation of spatially and temporally distinct cAMP signals.

[4] = molecular target: T1, rat olfactory CNG channel α subunit; assay: Excised inside-out patch recordings, cyclic nucleotide dose-response of CNG channel constructs; format: biochemical; details: for N: Hill coefficient, n=11, Example 9
Protocol: as §1, §2, §3

[5] = test system: HEK-293 cells expressing CNG channels; assay: Forskolin-induced cAMP accumulation monitored by Ca2+ influx (fura-2) through expressed CNG channels; format: cell-based, human; details: 100 μM IBMX; forskolin 0-50 μM
Protocol: Next, experiments were conducted to assess the ability of each channel construct to detect increases in local cAMP concentration. Changes in cAMP concentration were detected using fura-2 to monitor Ca^2+ influx through CNG channels, as described in the Examples. Ca^2+ influx induced by different concentrations of forskolin, an AC activator, in the presence of 100 μM IBMX, a nonselective PDE inhibitor was measured. This approach allowed comparisons to be made between the cAMP sensitivities of the different channels to changes in cAMP, regardless of variations in expression levels between experiments. In HEK-293 cells expressing the WT channel, addition of forskolin was followed by a brief delay and an increase in Ca^2+ influx (See, FIG. 7, Panel A). The delay decreased and the rate of Ca^2+ influx increased in a dose-dependent manner. Neither effect was saturated at 50 μM forskolin. In cells expressing the E583M channel, addition of forskolin was also followed by a brief delay and an increase in Ca^2+ influx (FIG. 7, Panel B). As with the WT channel, the delay and the initial rate of Ca^2+ influx were dose-dependent. […] In cells expressing the Δ61-90/C460W/E583M channel, addition of forskolin caused similar increases in Ca^2+ influx as the E583M channel, including saturation of the delay and rate of influx at 20 μM (compare FIG. 7, Panel B with FIG. 7, Panel D). The increased response of the modified channels to forskolin treatment is consistent with the apparent cAMP affinities measured in excised patches in the absence of Ca^2+-CaM (C460W/E583M>E583M˜Δ61-90/C460W/E583>WT channels). There are several factors that may have contributed to the apparent lack of a Ca^2+-CaM effect on the channels.
Briefly, HEK-293 were maintained in MEM (Life Technologies Inc.) supplemented with 26.2 mM NaHCO3, 10% (v/v) fetal bovine serum (Gemini), penicillin (50 μg/mL), and streptomycin ([…]), pH 7.0, at 37° C. in a humidified atmosphere of 95% air and 5% CO2. Cells were plated at ˜60% confluence in 100 mm culture dishes twenty-four hours prior to infection with the CNG-channel-encoding adenovirus constructs (multiplicity of infection=10 plaque forming units per cell). […] Twenty-four hours post-infection cells were detached with phosphate-buffered saline containing 0.03% EDTA, resuspended in serum-containing medium, and assayed within 12 hours.

Molecule	effect on CNG channel activity in excised membrane patches ([1]; 100 μM IBMX, 1 μM PGE1)	average amplitude of the cAMP signal ([2]; five cells)	width at half height of the cAMP response ([2]; perforated patch, −20 mV, six cells)	slopes of the initial PGE1-induced responses [3]	lower K1/2 for cAMP than the E583M channel [4]	N ([4]; +50 mV)	N ([4]; −50 mV)	Imax^cGMP/Imax^cAMP ([1]; +50 mV)	Imax^cGMP/Imax^cAMP ([1]; −50 mV)	forskolin concentration at which delay and rate of Ca2+ influx saturated [5]
CCCCC[C@H](O)/C=C/[C@H]1[C@H](O)CC(=O)[C@@H]1CCCCCCC(=O)O [PGE1, prostaglandin E1]	no direct effect on channels; also recorded: no change in current was observed	0.7 ± 0.4 µM	87 ± 53 s	0.0038 ± 0.0003 s⁻¹						
C460W/E583M: modified rat olfactory cyclic nucleotide-gated ion channel containing the C460W/E583M mutation, SEQ ID NO:6 (protein, listed as Rattus norvegicus) MMTEKSNGVKSSPANNHNHHPPPSIKANGKDDHRAGSRPQSVAADDDTSPELQRLAEMDTPRRGRGGFQRIVRLVGVIRDWANKNFREEEPRPDSFLERFRGPELQTVTTHQGDDKGGKDGEGKGTKKKFELFVLDPAGDWYYRWLFVIAMPVLYNWCLLVARACFSDLQRNYFVVWLVLDYFSDTVYIADLIIRLRTGFLEQGLLVKDPKKLRDNYIHTLQFKLDVASIIPTDLIYFAVGIHSPEVRFNRLLHFARMFEFFDRTETRTSYPNIFRISNLVLYILVIIHWNACIYYVISKSIGFGVDTWVYPNITDPEYGYLAREYIYCLYWSTLTLTTIGETPPPVKDEEYLFVIFDFLIGVLIFATIVGNVGSMISNMNATRAEFQAKIDAVKHYMQFRKVSKDMEAKVIKWFDYLWTNKKTVDEREVLKNLPAKLRAEIAINVHLSTLKKVRIFQDWEAGLLVELVLKLRPQVFSPGDYICRKGDIGKEMYIIKEGKLAVVADDGVTQYALLSAGSCFGEISILNIKGSKMGNRRTANIRSLGYSDLFCLSKDDLMEAVTEYPDAKKVLEERGREILMKMGLLDENEVAASMEVDVQEKLEQLETNMDTLYTRFARLLAEYTGAQQKLKQRITVLETKMKQNHEDDYLSDGINTPEPTAAE					~10 fold	2.1±0.4	2.0 ±0.3	0.84 ± 0.10	0.50 ± 0.10	5 µM
